# Laboratory results as given in publication PMC6213189, “ABD-Derived Protein Blockers of Human IL-17 Receptor A as Non-IgG Alternatives for Modulation of IL-17-Dependent Pro-Inflammatory Axis” (International Journal of Molecular Sciences, 2018).
# Ends that are not written are not given here. TolA = 305-residue helical TolA spacer protein; AVI = AviTag
# Biological target: T1, human IL-17RA on the cell surface (human (endogenous in THP-1 and HaCaT), UniProt Q96F46 33-866)
# T1 construct: human IL-17 receptor A, endogenous on the surface of human cell lines; Expression on THP-1 was confirmed with an anti-IL-17RA antibody; also called cell-surface IL-17RA; IL-17RA-expressing THP-1 cells; source: endogenous, on THP-1 cells; endogenous, on HaCaT cells
# Experiment: LigandTracer Green Line (real-time binding to cells); adherent HaCaT cells on a dish; biotinylated His6-ARS-TolA-AVI added stepwise (3, 30, 90 nM by the results), then dissociation in fresh medium or PBS (ARS043); one-to-one model, TraceDrawer
# Details: one partner purified
row,Binder,Kd [nM]
1,"His6-LAEAKVLANRELDKYGVSDLYKNMINMALWVTGVKWLIDPILATLP (designed binder, not fully specified (C-terminus); also: His6-TolA-AviTag fusion, not in given chain, biotin on the AviTag (in vivo biotinylated), ABD-derived variant selected by ribosome display; source: E. coli BL21 (DE3) BirA, purified (Ni-NTA); not shown: His6, N-terminal, kept; TolA spacer protein (305 residues), C-terminal, kept) [His6-ARS043-TolA-AVI]",32
2,"His6-LAEAKVLANRELDKYGVSDVYKLINMALYVTGVKPWIDVILAVLP-{TolA-AVI} (designed binder, also: biotin on the AviTag (in vivo biotinylated), ABD-derived variant selected by ribosome display; position 23 is deleted; source: E. coli BL21 (DE3) BirA, purified (Ni-NTA); not shown: His6, N-terminal, kept; TolA spacer protein (305 residues), C-terminal, kept) [His6-ARS012-TolA-AVI]",35
3,"His6-LAEAKVLANRELDKYGVSDMYKNVINIAWWVSIVKYPIDCILALLP (designed binder, not fully specified (C-terminus); also: His6-TolA-AviTag fusion, not in given chain, biotin on the AviTag (in vivo biotinylated), ABD-derived variant selected by ribosome display; source: E. coli BL21 (DE3) BirA, purified (Ni-NTA); not shown: His6, N-terminal, kept; TolA spacer protein (305 residues), C-terminal, kept) [His6-ARS019-TolA-AVI]",0.7
4,"His6-LAEAKVLANRELDKYGVSDVYKLINYACPVTWVKWVIDPILAMLP-{TolA-AVI} (designed binder, also: biotin on the AviTag (in vivo biotinylated), ABD-derived variant selected by ribosome display; position 23 is deleted; source: E. coli BL21 (DE3) BirA, purified (Ni-NTA); not shown: His6, N-terminal, kept; TolA spacer protein (305 residues), C-terminal, kept) [His6-ARS004-TolA-AVI]",1.2
5,"His6-LAEAKVLANRELDKYGVSDVYKNLINYAWLVMWVPIDAILALLP-{TolA-AVI} (designed binder, also: biotin on the AviTag (in vivo biotinylated), ABD-derived variant selected by ribosome display; positions 35-36 are deleted; source: E. coli BL21 (DE3) BirA, purified (Ni-NTA); not shown: His6, N-terminal, kept; TolA spacer protein (305 residues), C-terminal, kept) [His6-ARS014-TolA-AVI]",2
